According to patent US20230019342A1:
Square brackets hold non-standard residues; d marks the D form. Primed or numbered codes have the meaning given here. Ends that are not written are not given here. * marks the point of attachment. D‑Lys(pentyne) = D-Lys(pentyne) amide, alkyne-bearing D-lysine, C#CCCC(=O)NCCCC[C@@H](N*)C(N)=O; S3(3) = biotin-PEG2-acylated azidolysine clicked to D-Pra carrying 5-azido-pentanoic acid; Lys(N3) = [N-]=[N+]=NCCCC[C@H](N)C(=O)O; S3″ = biotin-PEG2 linker with azide; dPra = C#CC[C@@H](N)C(=O)O

Key:
[1] = target: Active Akt2 (with N terminal His6 tag) (human) (UniProt P31751); experiment: single-component immunoassay (ELISA, mono-L as detection agent, FIG. 23A)
[2] = target: Active Akt2 (with N terminal His6 tag) (human) (UniProt P31751); experiment: cell-based or functional assay
[3] = target: Inactive Akt2 (with N terminal His6 tag) (human) (UniProt P31751); experiment: ELISA, immobilised C-tL, active against inactive Akt2 (FIG. 23E)
[4] = target: Active Akt3 (with N terminal His6 tag) (human) (UniProt Q9Y243); experiment: ELISA, C-tL immobilised on streptavidin plate, 25 nM His6 tagged full protein, anti His6 detection, triplicate
Chain of Active Akt3 (with N terminal His6 tag) (human) (Q9Y243 other isoform, or with tags, fused parts or gaps): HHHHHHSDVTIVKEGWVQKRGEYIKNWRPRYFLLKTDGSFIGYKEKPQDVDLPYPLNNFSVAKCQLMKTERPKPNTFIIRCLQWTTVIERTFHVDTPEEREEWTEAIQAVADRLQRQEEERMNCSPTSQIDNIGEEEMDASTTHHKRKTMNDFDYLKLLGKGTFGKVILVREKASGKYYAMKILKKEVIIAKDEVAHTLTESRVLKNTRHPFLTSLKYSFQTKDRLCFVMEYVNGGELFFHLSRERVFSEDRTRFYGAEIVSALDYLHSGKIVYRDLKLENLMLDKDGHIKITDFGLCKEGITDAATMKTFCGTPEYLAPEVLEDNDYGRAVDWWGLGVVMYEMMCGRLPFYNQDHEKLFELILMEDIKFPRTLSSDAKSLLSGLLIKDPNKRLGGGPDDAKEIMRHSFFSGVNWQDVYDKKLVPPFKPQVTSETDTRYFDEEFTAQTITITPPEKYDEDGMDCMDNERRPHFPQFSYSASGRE

[5] = target: Active Akt1 (with N terminal His6 tag) (human) (UniProt P31749); experiment: as above
Chain of Active Akt1 (with N terminal His6 tag) (human) (P31749 other isoform, or with tags, fused parts or gaps): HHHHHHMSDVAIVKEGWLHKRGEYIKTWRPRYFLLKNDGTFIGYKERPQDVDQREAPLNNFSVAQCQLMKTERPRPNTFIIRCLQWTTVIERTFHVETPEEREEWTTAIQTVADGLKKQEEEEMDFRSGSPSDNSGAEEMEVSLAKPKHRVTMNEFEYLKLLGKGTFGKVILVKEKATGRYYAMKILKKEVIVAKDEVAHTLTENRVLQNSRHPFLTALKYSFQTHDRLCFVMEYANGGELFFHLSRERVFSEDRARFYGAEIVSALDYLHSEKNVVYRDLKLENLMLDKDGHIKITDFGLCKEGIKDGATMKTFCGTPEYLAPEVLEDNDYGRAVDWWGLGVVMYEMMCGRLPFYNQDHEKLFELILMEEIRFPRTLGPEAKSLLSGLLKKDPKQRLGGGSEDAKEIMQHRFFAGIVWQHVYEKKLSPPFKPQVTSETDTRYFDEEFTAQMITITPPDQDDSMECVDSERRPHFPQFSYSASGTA

[6] = target: Active Akt2 (with N terminal His6 tag) (human) (UniProt P31751); experiment: single component ELISA, C-tL as surface-localized capture agent (FIG. 23A)
N-tL = target: T1, N-tL (not fully specified)
T1 chain 1: WKVKL
T1 chain 2: HNGYF
T1 chain 3: XYYRFG

[7] = target: Active Akt2 (with N terminal His6 tag) (human) (UniProt P31751); experiment: SPR, Biacore T100, N-tL immobilised on SA chip, Akt2 protein as analyte, 1:1 model, 10° C.
[8] = target: Active Akt2 (with N terminal His6 tag) (human) (UniProt P31751); experiment: not stated there (summary of the ELISA and SPR results)
[9] = target: Active Akt2 (with N terminal His6 tag) (human) (UniProt P31751); experiment: single component ELISA, N-tL as surface-localized capture agent (FIG. 23A)
[10] = target: Active Akt2 (with N terminal His6 tag) (human) (UniProt P31751); experiment: single-component ELISA (bi-L as detection agent, FIG. 23A)

B1: mono-L (peptide)
peptide: [dPra][dW][dK][dV][dK][dL]-NH2
modifications: not fully specified (residue 1, N-terminus); printed as (D-Pra)-wkvkl; also: D-Pra side chain clicked (triazole) to azide of S1 (azidolysine-PEG2-biotin), biotin label
affinity [1]: 3 µM

B2: C-tL (peptide)
peptide 1: Ac-[Lys(N3)][dH][dD]GG[dF]-NH2
peptide 2: {S3″}-[dW][dK][dV][dK]-{D‑Lys(pentyne)-NH2}
peptide 3: [dH][dN]G[dY][dF][dPra]
modifications: not fully specified (bridges); also: branched three-arm conjugate, triazole at chain A 1 to a chain's C-terminus, triazole to a chain's N/C-terminus via S3
Akt2 kinase activity: phosphorylation of the GSK-3α/β substrate, Western blot, EC50 [2]: 4 µM
selectivity ratio (p-Akt2 over Akt2) (fold (ratio, reference p-Akt2)) [3]: 5
selectivity ratio (Akt2 over Akt3) (fold (ratio, reference full-length Akt2)) [4]: 10
selectivity ratio (Akt2 over Akt1) (fold (ratio, reference full-length Akt2)) [5]: 5
EC50 [6]: 125 nM

B3: Active Akt2 (with N terminal His6 tag) (protein)
chain: HHHHHHMNEVSVIKEGWLHKRGEYIKTWRPRYFLLKSDGSFIGYKERPEAPDQTLPPLNNFSVAECQLMKTERPRPNTFVIRCLQWTTVIERTFHVDSPDEREEWMRAIQMVANSLKQRAPGEDPMDYKCGSPSDSSTTEEMEVAVSKARAKVTMNDFDYLKLLGKGTFGKVILVREKATGRYYAMKILRKEVIIAKDEVAHTVTESRVLQNTRHPFLTALKYAFQTHDRLCFVMEYANGGELFFHLSRERVFTEERARFYGAEIVSALEYLHSRDVVYRDIKLENLMLDKDGHIKITDFGLCKEGISDGATMKTFCGTPEYLAPEVLEDNDYGRAVDWWGLGVVMYEMMCGRLPFYNQDHERLFELILMEEIRFPRTLSPEAKSLLAGLLKKDPKQRLGGGPSDAKEVMEHRFFLSINWQDVVQKKLLPPFKPQVTSEVDTRYFDDEFTAQSITITPPDRYDSLGLLELDQRTHFPQFSYSASIRE
Akt2 kinase activity: phosphorylation of the GSK-3α/β substrate, Western blot (N-tL): The N-tL was found to activate Akt2

B4: N-tL (peptide)
peptide 1: [dW][dK][dV][dK][dL]
peptide 2: [dH][dN]G[dY][dF]
peptide 3: Ac-[dPra][dY][dY][dR][dF]G-NH2
modifications: not fully specified (bridges)
Kd [7]: 25 nM
affinity [8]: 20 nM
EC50 [9]: 19 nM

B5: bi-L (peptide)
peptide 1: {S3(3)}-[dW][dK][dV][dK][dL]-NH2
peptide 2: [dH][dN]G[dY][dF][dPra]
modifications: triazole (positions not given here); also: branched two-arm conjugate, triazole to a chain's N/C-terminus via S3
affinity [10]: 1 µM
